As a reminder, the Kd is a measure of binding affinity in units of concentration.

In experiment [1] the target is S. cerevisiae Nup84-GFP (S. cerevisiae) (UniProt P52891). The experiment is described as follows: time course of Nup84-GFP isolation from yeast with dimer-conjugated magnetic beads, Coomassie band quantification.
The target of experiment [2] is GFP-His6 (eGFP) (Aequorea victoria) [GFP: P42212]. The experiment is described as follows: label under gel lane; legend: in vitro Kd for GFP by SPR; the asterisk is not explained on the sheet. On the technique in general: Surface plasmon resonance follows binding to a sensor surface in real time, without labels.

Take “LaG16-LaG2 fusion with a flexible glycine-rich linker (G4S)”: in experiment [1], the relative yield of affinity isolation, percent of maximum, after 5 minutes is 80% and the relative yield of affinity isolation, percent of maximum, after 10 minutes was determined as 90%.

“GFP-Trap nanobody (ChromoTek GmbH) (VHH)”: the Kd in experiment [2] was 0.23 nM.

Source of the values: patent publication US20170212130A1.
